Measured values from paper PMC2174279.

Experiments:
[1] = biological target: Arc40p (LexA two-hybrid bait) (S. cerevisiae) (UniProt P38328); test: two-hybrid
[2] = biological target: Bee1p-HA (S. cerevisiae); test: co-IP
[3] = biological target: Arc40p-HA (S. cerevisiae) (UniProt P38328); test: co-IP
[4] = biological target: Bee1p (1-633) (S. cerevisiae); test: two-hybrid
[5] = biological target: Bee1p (166-633) (S. cerevisiae); test: two-hybrid
[6] = biological target: Bee1p (1-165) (S. cerevisiae); test: two-hybrid
[7] = biological target: peptide PRP2 (…), LexA bait; test: two-hybrid
[8] = biological target: peptide PRP2-1 (…), LexA bait; test: two-hybrid
[9] = biological target: Arc19p (LexA two-hybrid bait) (S. cerevisiae) (UniProt P33204); test: two-hybrid

Substance: Myo3p-AD-32 (1239-1271) (from UniProt P36006 1239-1271) (domain or fragment)
- LacZ expression (two-hybrid) [1]: 25 Miller units

Substance: Myo3p (from UniProt P36006 1-1272) (natural protein)
- percent of the total Myo3p in the extract coimmunoprecipitated [2]: 1%
- percent of the total Myo3p in the extract coimmunoprecipitated [3]: 1%

Substance: Myo3pΔAD (from UniProt P36006 1-1188) (domain or fragment)
- percent coimmunoprecipitated [2]: 1%

Substance: Myo3p(SH3-W1157S) (from UniProt P36006 1-1272) (natural protein)
- percent coimmunoprecipitated [3]: 0.1%

Substance: Myo3p-SH3(W1157S)-AD (1118-1271) (from UniProt P36006 1118-1271) (domain or fragment)
- LacZ expression (two-hybrid) [1]: 366 Miller units

Substance: Myo3p-SH3-AD (1118-1271) (from UniProt P36006 1118-1271) (domain or fragment)
- LacZ expression (two-hybrid) [1]: 458 Miller units
- LacZ expression (two-hybrid) [4]: 715 Miller units
- LacZ expression (two-hybrid) [5]: 113 Miller units
- LacZ expression (two-hybrid) [6]: 1200 Miller units
- LacZ expression (two-hybrid) [7]: 210 Miller units
- LacZ expression (two-hybrid) [8]: 219 Miller units
- LacZ expression (two-hybrid) [9]: 152 Miller units

Substance: Bee1p-WH2-AD (531-633) (domain or fragment)
- LacZ expression (two-hybrid) [1]: 18 Miller units

Substance: Myo3p-SH3 (1118-1188) (from UniProt P36006 1118-1188) (domain or fragment)
- LacZ expression (two-hybrid) [4]: 1760 Miller units

Substance: Myo3p-AD (1182-1271) (from UniProt P36006 1182-1271) (domain or fragment)
- LacZ expression (two-hybrid) [1]: 151 Miller units
